Measured values reported in patent US20100129369A1 (Eli Lilly, published 2010).

What was measured:
RON-ECD-Fc [1] = molecular target: T1, RON-ECD-Fc (human, UniProt Q04912 25-957); experiment: ELISA, coated ECD-Fc, antibody 0.010 ng/mL
T1 construct: extracellular domain; Bought reagent; not shown: Fc part of the bought fusion
T1 sequence (looked up): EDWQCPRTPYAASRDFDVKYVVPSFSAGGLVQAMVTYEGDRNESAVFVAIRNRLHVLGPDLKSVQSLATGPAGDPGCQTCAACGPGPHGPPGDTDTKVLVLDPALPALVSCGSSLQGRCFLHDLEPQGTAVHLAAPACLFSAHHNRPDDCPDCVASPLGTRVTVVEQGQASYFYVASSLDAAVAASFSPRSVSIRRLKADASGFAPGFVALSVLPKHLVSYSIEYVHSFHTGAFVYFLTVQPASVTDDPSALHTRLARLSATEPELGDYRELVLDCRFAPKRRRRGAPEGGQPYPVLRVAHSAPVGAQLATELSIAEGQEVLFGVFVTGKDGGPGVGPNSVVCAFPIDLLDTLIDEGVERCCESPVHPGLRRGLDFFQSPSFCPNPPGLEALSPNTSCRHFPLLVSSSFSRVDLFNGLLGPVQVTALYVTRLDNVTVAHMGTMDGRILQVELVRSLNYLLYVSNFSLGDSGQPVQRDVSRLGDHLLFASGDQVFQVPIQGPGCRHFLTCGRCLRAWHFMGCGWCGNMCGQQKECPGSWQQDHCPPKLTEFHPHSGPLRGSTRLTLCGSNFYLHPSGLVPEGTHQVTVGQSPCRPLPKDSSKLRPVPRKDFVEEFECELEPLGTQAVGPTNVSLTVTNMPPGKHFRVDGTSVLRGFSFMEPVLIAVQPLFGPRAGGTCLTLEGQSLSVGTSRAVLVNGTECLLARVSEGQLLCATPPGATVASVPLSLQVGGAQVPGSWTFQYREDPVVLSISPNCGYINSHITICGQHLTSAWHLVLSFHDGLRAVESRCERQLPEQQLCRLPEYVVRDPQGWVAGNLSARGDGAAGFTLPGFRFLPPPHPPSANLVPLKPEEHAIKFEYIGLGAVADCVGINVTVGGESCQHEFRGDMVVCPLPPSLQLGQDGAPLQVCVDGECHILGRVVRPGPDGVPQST
Method: (§1) Wells of 96-well EIA/RIA high binding plates (Costar, #2592) are coated with 100 μL of 1 μg/mL human c-Met extracellular domain (ECD)-Fc-Flis fusion (SEQ ID NO:72), RON-ECD-Fc (R&D Systems, #1947-MS), or PlexinA2-ECD-Fc (Abnova, Taipei, Taiwan #H00005362-P01) in coating buffer (BioFX Labs, # COAT-1000-01) overnight at 4° C. […] After the plates are washed, 100 μL/well of substrate solution (BioFx, #TMBW-1000-01) are added and the plates are incubated for 10 min. at room temperature. 100 μL/well of stop solution (BioFx, # LSTP-1000-01) are added to stop the reaction. The colorimetric signals are developed and read at 450 nm using a SpectraMax 190 plate reader (Molecular Devices, Sunnyvale, Calif.). c-Met antibody binding to c-Met, RON and PlexinA2 ECDs is proportional to color signal production.

PlexinA2-ECD-Fc [2] = molecular target: T2, PlexinA2-ECD-Fc (human, UniProt O75051 35-1237); experiment: ELISA, coated ECD-Fc, antibody 0.010 ng/mL
T2 construct: extracellular domain; Bought reagent
T2 sequence (looked up): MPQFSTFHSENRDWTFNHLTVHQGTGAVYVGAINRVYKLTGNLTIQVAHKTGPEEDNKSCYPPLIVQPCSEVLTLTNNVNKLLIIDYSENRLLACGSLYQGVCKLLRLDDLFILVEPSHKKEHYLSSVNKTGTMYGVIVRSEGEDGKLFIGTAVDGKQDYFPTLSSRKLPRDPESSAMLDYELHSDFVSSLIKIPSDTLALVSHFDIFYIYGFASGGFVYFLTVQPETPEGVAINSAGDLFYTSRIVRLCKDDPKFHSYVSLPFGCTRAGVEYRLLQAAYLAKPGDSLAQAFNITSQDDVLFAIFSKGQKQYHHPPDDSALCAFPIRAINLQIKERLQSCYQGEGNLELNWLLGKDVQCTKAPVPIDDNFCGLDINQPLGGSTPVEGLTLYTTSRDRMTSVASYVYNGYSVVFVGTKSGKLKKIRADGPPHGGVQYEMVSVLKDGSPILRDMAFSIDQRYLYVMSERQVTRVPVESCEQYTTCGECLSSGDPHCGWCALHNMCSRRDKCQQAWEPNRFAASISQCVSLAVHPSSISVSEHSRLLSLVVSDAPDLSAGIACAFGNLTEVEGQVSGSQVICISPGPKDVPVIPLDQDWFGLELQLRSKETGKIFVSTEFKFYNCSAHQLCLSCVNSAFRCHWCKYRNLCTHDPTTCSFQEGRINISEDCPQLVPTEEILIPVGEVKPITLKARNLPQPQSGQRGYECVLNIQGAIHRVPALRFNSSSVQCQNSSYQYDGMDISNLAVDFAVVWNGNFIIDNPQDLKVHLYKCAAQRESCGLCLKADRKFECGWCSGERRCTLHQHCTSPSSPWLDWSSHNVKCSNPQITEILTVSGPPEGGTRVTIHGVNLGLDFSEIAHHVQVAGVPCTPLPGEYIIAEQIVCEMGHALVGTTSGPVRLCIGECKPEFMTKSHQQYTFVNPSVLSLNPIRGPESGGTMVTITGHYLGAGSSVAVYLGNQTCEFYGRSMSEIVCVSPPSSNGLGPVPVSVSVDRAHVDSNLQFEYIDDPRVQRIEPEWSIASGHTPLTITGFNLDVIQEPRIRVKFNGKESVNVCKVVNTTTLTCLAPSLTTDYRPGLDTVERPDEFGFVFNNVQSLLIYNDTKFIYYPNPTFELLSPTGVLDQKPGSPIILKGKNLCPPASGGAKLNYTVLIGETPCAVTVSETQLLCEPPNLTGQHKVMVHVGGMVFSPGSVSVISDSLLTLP
Method: as §1

Human c-Met-Flis-Fc ECD [3] = molecular target: T3, Human c-Met-Flis-Fc ECD (human); experiment: ELISA, coated ECD-Fc, antibody 0.010 ng/mL
T3 construct: also called human c-Met extracellular domain (ECD)-Fc-Flis fusion; Human cMet-ECD-Fc-Flis
T3 sequence (chain, as listed by the source limits assumed): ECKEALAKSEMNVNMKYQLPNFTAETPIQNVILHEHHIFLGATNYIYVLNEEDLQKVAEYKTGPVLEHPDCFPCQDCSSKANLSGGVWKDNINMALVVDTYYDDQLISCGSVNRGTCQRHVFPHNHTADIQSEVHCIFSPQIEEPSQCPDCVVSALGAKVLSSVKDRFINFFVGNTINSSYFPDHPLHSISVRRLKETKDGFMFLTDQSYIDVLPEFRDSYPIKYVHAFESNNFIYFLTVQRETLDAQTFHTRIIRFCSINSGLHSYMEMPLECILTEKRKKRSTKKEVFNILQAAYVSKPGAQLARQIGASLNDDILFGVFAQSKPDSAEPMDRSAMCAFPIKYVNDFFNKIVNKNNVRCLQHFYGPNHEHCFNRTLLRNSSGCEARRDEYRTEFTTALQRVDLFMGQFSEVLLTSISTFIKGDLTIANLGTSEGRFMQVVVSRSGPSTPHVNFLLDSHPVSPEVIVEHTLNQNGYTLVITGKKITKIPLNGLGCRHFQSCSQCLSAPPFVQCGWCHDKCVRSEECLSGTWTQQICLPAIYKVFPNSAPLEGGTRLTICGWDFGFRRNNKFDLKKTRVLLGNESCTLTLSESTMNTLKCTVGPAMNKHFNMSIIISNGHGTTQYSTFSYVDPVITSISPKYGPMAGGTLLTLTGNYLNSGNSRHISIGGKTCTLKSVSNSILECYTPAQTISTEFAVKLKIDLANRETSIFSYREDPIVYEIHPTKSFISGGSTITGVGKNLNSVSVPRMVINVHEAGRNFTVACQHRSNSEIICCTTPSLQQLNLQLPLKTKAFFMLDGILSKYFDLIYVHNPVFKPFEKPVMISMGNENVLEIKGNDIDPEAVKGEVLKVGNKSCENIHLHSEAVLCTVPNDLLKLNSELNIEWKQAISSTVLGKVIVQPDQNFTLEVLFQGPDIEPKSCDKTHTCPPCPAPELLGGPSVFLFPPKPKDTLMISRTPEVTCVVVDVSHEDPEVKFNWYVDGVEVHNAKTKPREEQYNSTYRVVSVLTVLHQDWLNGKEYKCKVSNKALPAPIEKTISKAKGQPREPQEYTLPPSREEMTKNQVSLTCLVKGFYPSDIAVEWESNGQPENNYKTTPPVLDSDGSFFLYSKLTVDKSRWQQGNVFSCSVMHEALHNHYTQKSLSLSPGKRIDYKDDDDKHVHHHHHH
Method: as §1

PlexinA2-ECD-Fc [4] = molecular target: T2, PlexinA2-ECD-Fc; experiment: ELISA, coated ECD-Fc, antibody 77.160 ng/mL
Method: as §1

RON-ECD-Fc [5] = molecular target: T1, RON-ECD-Fc; experiment: ELISA, coated ECD-Fc, antibody 2777.778 ng/mL
Method: as §1

PlexinA2-ECD-Fc [6] = molecular target: T2, PlexinA2-ECD-Fc; experiment: ELISA, coated ECD-Fc, antibody 2777.778 ng/mL
Method: as §1

Human c-Met-Flis-Fc ECD [7] = molecular target: T3, Human c-Met-Flis-Fc ECD; experiment: ELISA, coated ECD-Fc, antibody 2777.778 ng/mL
Method: as §1

- Average A450 nm (RON-ECD-Fc [1]): 0.097 A450 nm
- Average A450 nm (PlexinA2-ECD-Fc [2]): 0.095 A450 nm
- Average A450 nm (Human c-Met-Flis-Fc ECD [3]): 0.335 A450 nm
- Average A450 nm (PlexinA2-ECD-Fc [4]): 0.078 A450 nm
- Average A450 nm (RON-ECD-Fc [5]): 0.088 A450 nm
- Average A450 nm (PlexinA2-ECD-Fc [6]): 0.094 A450 nm
- Average A450 nm (Human c-Met-Flis-Fc ECD [7]): 4 A450 nm
B1: C8-6 (antibody, human IgG2, kappa, V domains shown)
VH: QVQLVQSGAEVKKPGASVKVSCKASGYTFTDYYMHWVRQAPGQGLEWMGRVNPNRGGTTYNQKFEGRVTMTTDTSTSTAYMELRSLRSDDTAVYYCARTNWLDYWGQGTTVTVSS
VL: DIQMTQSPSSLSASVGDRVTITCSVSSSVSSIYLHWYQQKPGKAPKLLIYSTSNLASGVPSRFSGSGSGTDFTLTISSLQPEDFATYYCIQYSGYPLTFGGGTKVEIKR
notes: Called IgG4, kappa; also called Mab C8-6
